# Results: the Human Domainome abundance scans (Beltran et al. 2025)
# ± gives the uncertainty stated by the source.
# B1: POU domain, class 2, transcription factor 2, residues 200 to 269; numbered along this chain, P09086 (parent)
# chain: LEELEQFARTFKQRRIKLGFTQGDVGLAMGKLYGNDFSQTTISRFEALNLSFKNMCKLKPLLEKWLNDAE
# B2: Max-interacting protein 1, residues 70 to 120; numbered along this chain, P50539 (parent)
# chain: STHNELEKNRRAHLRLCLERLKVLIPLGPDCTRHTTLGLLNKAKAHIKKLE
# Variants of: B1
# Experiment: abundance fitness (aPCA) (normalised: wild type 0, dead -1); higher = more abundant; growth selection in yeast, the domain comes from the species named
# Conditions: Homo sapiens
row,Variant,abundance fitness
1,F20R,-0.083 ± 0.034
2,F20D,-0.899 ± 0.16
3,F20S,-0.207 ± 0.04
4,E70R,-0.164 ± 0.052
5,L62Y,-0.076 ± 0.17
6,L62K,-0.896 ± 0.15
7,L61D,-0.006 ± 0.14
8,A8H,-0.604 ± 0.13
9,S38E,-0.015 ± 0.053
10,C56R,0.014 ± 0.029
11,T41Y,-0.078 ± 0.13
12,T41C,0.094 ± 0.097
13,D24H,-0.065 ± 0.076
14,D24F,-0.158 ± 0.11
15,D24G,-0.113 ± 0.033
16,N54Q,0.11 ± 0.15
17,N54L,-0.097 ± 0.048
18,Q22V,-0.059 ± 0.038
19,Q22N,-0.351 ± 0.18
20,Q22S,-0.093 ± 0.047
21,L27A,0.041 ± 0.036
22,P60D,-0.082 ± 0.077
23,W65T,-0.362 ± 0.061
24,F52Y,-0.096 ± 0.14

row,Variant,abundance fitness
1,N35E,0.106 ± 0.055
2,T21M,-0.26 ± 0.058
3,K57P,-0.44 ± 0.064
4,K57I,-0.153 ± 0.085
5,M29I,-0.211 ± 0.08
6,M29A,-0.131 ± 0.054
7,G23H,-0.056 ± 0.29
8,T40P,-0.072 ± 0.087
9,L4Y,-0.408 ± 0.19
10,F45H,-1.04 ± 0.49
11,F45R,-0.965 ± 0.078
12,F45D,-0.916 ± 0.26
13,G19H,-0.086 ± 0.07
14,G26F,-0.18 ± 0.084
15,L18V,-0.234 ± 0.039
16,G30R,-0.063 ± 0.043
17,D68K,-0.015 ± 0.044
18,D68Q,-0.063 ± 0.079
19,K31D,-0.114 ± 0.055
20,K31H,-0.119 ± 0.093
21,K31G,-0.047 ± 0.031
22,L58A,-0.002 ± 0.04
23,E46R,-0.993 ± 0.079
24,E46W,-1.02 ± 0.13

row,Variant,abundance fitness
1,E46C,-1.06 ± 0.21
2,E46T,-0.87 ± 0.13
3,E3G,-0.154 ± 0.041
4,E3I,-0.078 ± 0.086
5,D36L,-0.049 ± 0.036
6,R44K,0.033 ± 0.066
7,A47W,-0.325 ± 0.053
8,L48V,0.018 ± 0.045
9,L48I,-0.029 ± 0.09
10,K64H,0.041 ± 0.11
11,N49Q,0.053 ± 0.058
12,N49H,-0.018 ± 0.058
13,T10I,-0.052 ± 0.027
14,L66A,0.001 ± 0.056
15,S43A,0.005 ± 0.046
16,S43V,-0.098 ± 0.036
17,L1D,-0.279 ± 0.19
18,L1S,-0.027 ± 0.12
19,L1F,-0.028 ± 0.13
20,L1N,0.008 ± 0.21
21,K53G,0.002 ± 0.034
22,L32C,-0.083 ± 0.081
23,F7C,-0.114 ± 0.052
24,E2M,0.173 ± 0.095

# Variants of: B2
# Experiment: as above
# Conditions: Homo sapiens
row,Variant,abundance fitness
1,I47A,-0.582 ± 0.1
2,I47R,-0.707 ± 0.087
3,I47P,-1.06 ± 0.17
4,I47E,-0.776 ± 0.16
5,I47L,0.027 ± 0.09
6,I47F,0.216 ± 0.21
7,I47K,-0.858 ± 0.14
8,I47S,-0.653 ± 0.093
9,I47T,-0.61 ± 0.16
10,I47G,-0.539 ± 0.09
11,I47Y,-0.137 ± 0.17
12,I47M,-0.25 ± 0.1
13,I47N,-0.702 ± 0.18
14,I47D,-0.761 ± 0.15
15,I47V,-0.312 ± 0.096
16,I47C,-0.524 ± 0.11
17,I47Q,-0.931 ± 0.14
18,K49Q,-0.679 ± 0.17
19,K49W,-0.041 ± 0.1
20,K49M,-0.692 ± 0.13
21,K49N,-0.594 ± 0.25
22,K49Y,-0.746 ± 0.24
23,K49L,-0.386 ± 0.094
24,K49G,-0.458 ± 0.091

row,Variant,abundance fitness
1,K49H,-1.02 ± 0.24
2,K49I,-0.81 ± 0.24
3,K49S,-0.278 ± 0.1
4,K49V,-0.618 ± 0.11
5,K49T,-0.701 ± 0.15
6,K49P,-0.638 ± 0.11
7,K49D,-1.07 ± 0.25
8,K49F,-0.045 ± 0.19
9,K49C,-0.62 ± 0.14
10,K48R,-0.288 ± 0.087
11,K48Q,-0.457 ± 0.22
12,K48Y,0.026 ± 0.22
13,K48L,-0.802 ± 0.14
14,K48F,-0.093 ± 0.16
15,K48G,-0.479 ± 0.085
16,K48N,-0.675 ± 0.4
17,K48E,-0.762 ± 0.12
18,K48S,-0.648 ± 0.14
19,K48H,-0.74 ± 0.21
20,K48D,-0.65 ± 0.15
21,K48M,-0.65 ± 0.18
22,K48P,-0.643 ± 0.14
23,K48T,-0.719 ± 0.15
24,K48C,-0.311 ± 0.14

row,Variant,abundance fitness
1,K48W,-0.31 ± 0.17
2,K48I,-0.351 ± 0.23
3,K48V,-0.846 ± 0.096
4,H46S,0.237 ± 0.1
5,H46P,-0.6 ± 0.16
6,H46I,-0.26 ± 0.24
7,H46V,0.116 ± 0.097
8,H46G,0.108 ± 0.077
9,H46Q,0.305 ± 0.11
10,H46R,-0.055 ± 0.079
11,H46N,-0.394 ± 0.23
12,H46T,0.154 ± 0.14
13,H46W,0.216 ± 0.085
14,H46K,0.186 ± 0.13
15,E51H,0.368 ± 0.28
16,E51T,0.462 ± 0.16
17,E51Y,0.374 ± 0.21
18,E51S,0.615 ± 0.16
19,E51N,0.504 ± 0.18
20,E51G,0.355 ± 0.15
21,E51F,0.332 ± 0.22
22,E51Q,-0.198 ± 0.25
23,E51D,-0.197 ± 0.25
24,E51I,-0.459 ± 0.47

row,Variant,abundance fitness
1,E51W,-0.059 ± 0.18
2,E51L,-0.182 ± 0.25
3,E51A,0.495 ± 0.15
4,E51P,-0.089 ± 0.34
5,E51C,0.207 ± 0.21
6,E51V,0.271 ± 0.14
7,E51M,0.571 ± 0.46
8,E51K,0.891 ± 0.5
9,E51R,0.452 ± 0.15
10,L50K,-0.342 ± 0.19
11,L50W,0.023 ± 0.096
12,L50G,-0.317 ± 0.088
13,L50V,-0.616 ± 0.1
14,L50Y,-0.351 ± 0.31
15,L50P,-0.353 ± 0.2
16,L50R,-0.459 ± 0.1
17,L50N,-0.617 ± 0.33
18,L50D,-0.423 ± 0.17
19,L50F,0.259 ± 0.19
20,L50E,-0.636 ± 0.12
21,L50M,-0.446 ± 0.17
22,L50Q,-0.377 ± 0.13
23,L50A,-0.572 ± 0.11
